Experimental findings from publication doi:10.1101/2024.04.30.591959, “Structural insights into human propionyl-CoA carboxylase (PCC) and 3-methylcrotonyl-CoA carboxylase (MCC)” (bioRxiv, 2024) are described below.

What all share (experiment): cryo-EM structure; endogenous holoenzymes co-purified from Expi 293F cells as a mixture of biotin-dependent carboxylases; HBS buffer (20 mM HEPES, pH 7.4, 150 mM NaCl); apo, or pre-incubated with 25 mM NaHCO3, 10 mM MgCl2 and 10 mM propionyl-CoA or acetyl-CoA, 10 mM ATP added before freezing
Data set [1] deals with the molecule itself.
The target in data set [2] is T1, human 3-methylcrotonyl-CoA carboxylase α subunit (human (endogenous in Expi 293F), UniProt Q96RQ3 42-725, biotin covalently linked to K681 (AMKM motif of the BCCP domain)).
T1 construct: 3-methylcrotonyl-CoA carboxylase α subunit (MCCα), human, endogenous; holds the BC, BT and BCCP domains; Purified as part of the endogenous α6β6 MCC holoenzyme, in a mixture with the other biotin-dependent carboxylases; also called MCCα; α subunit of MCC; source: endogenous, Expi 293F cells, purified (Strep-Tactin XT resin, size-exclusion chromatography)
T1 sequence (looked up): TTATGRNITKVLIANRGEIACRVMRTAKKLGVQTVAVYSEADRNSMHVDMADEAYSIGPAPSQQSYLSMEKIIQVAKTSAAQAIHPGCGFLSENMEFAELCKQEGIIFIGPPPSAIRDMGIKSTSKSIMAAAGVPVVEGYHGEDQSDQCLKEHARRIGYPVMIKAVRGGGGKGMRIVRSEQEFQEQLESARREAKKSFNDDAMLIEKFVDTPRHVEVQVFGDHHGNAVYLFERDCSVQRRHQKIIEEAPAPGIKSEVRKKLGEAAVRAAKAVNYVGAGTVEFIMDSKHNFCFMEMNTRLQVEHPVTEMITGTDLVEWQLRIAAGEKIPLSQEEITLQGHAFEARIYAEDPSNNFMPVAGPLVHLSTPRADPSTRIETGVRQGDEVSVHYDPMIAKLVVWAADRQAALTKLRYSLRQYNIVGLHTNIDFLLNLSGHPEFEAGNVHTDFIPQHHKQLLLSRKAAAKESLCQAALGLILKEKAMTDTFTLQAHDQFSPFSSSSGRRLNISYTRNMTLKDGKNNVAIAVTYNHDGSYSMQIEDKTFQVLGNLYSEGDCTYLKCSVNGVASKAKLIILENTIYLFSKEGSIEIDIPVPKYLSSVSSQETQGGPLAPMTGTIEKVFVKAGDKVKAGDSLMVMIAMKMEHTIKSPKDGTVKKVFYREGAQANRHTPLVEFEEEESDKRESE
The conditions noted are these: both partners purified.

Data set [3] addresses T2, human propionyl-CoA carboxylase α subunit (human (endogenous in Expi 293F), UniProt P05165 53-728, biotin covalently linked to K694 (AMKM motif of the BCCP domain)).
T2 construct: Propionyl-CoA carboxylase α subunit (PCCα), human, endogenous; holds the BC, BT and BCCP domains; Purified as part of the endogenous α6β6 PCC holoenzyme, in a mixture with the other biotin-dependent carboxylases; also called PCCα; α subunit of PCC; source: endogenous, Expi 293F cells, purified (Strep-Tactin XT resin, size-exclusion chromatography)
T2 sequence (looked up): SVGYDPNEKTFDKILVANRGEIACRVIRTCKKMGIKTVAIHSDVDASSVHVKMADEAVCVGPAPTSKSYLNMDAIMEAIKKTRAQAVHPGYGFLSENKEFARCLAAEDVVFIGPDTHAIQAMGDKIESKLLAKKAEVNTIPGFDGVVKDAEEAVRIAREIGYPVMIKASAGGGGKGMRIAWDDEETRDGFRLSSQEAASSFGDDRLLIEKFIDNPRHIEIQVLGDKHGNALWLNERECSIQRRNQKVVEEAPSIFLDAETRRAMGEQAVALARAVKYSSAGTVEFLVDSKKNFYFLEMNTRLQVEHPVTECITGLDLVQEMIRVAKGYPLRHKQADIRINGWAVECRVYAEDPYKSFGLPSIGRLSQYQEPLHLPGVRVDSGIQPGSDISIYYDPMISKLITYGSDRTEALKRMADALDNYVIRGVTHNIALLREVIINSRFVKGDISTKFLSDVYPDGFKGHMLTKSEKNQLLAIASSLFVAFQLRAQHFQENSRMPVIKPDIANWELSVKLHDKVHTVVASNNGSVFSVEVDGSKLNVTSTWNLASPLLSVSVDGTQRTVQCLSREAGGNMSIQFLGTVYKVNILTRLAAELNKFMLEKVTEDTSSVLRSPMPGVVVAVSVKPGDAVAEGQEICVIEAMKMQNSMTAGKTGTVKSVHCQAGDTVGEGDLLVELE
Particulars: both partners purified.

B1: human 3-methylcrotonyl-CoA carboxylase β subunit (natural protein, human (endogenous in Expi 293F), UniProt Q9HCC0 23-563, looked up)
chain: YHGDSVASLGTQPDLGSALYQENYKQMKALVNQLHERVEHIKLGGGEKARALHISRGKLLPRERIDNLIDPGSPFLELSQFAGYQLYDNEEVPGGGIITGIGRVSGVECMIIANDATVKGGAYYPVTVKKQLRAQEIAMQNRLPCIYLVDSGGAYLPRQADVFPDRDHFGRTFYNQAIMSSKNIAQIAVVMGSCTAGGAYVPAMADENIIVRKQGTIFLAGPPLVKAATGEEVSAEDLGGADLHCRKSGVSDHWALDDHHALHLTRKVVRNLNYQKKLDVTIEPSEEPLFPADELYGIVGANLKRSFDVREVIARIVDGSRFTEFKAFYGDTLVTGFARIFGYPVGIVGNNGVLFSESAKKGTHFVQLCCQRNIPLLFLQNITGFMVGREYEAEGIAKDGAKMVAAVACAQVPKITLIIGGSYGAGNYGMCGRAYSPRFLYIWPNARISVMGGEQAANVLATITKDQRAREGKQFSSADEAALKEPIIKKFEEEGNPYYSSARVWDDGIIDPADTRLVLGLSFSAALNAPIEKTDFGIFRM
notes: 3-methylcrotonyl-CoA carboxylase β subunit (MCCβ), human, endogenous; CT domain (CT-N and CT-C subdomains); Co-purified with the biotinylated α subunit as the endogenous α6β6 MCC holoenzyme; also called MCCβ; β subunit of MCC; source: endogenous, Expi 293F cells, purified (Strep-Tactin XT resin, size-exclusion chromatography)
For the molecule B1, the “stoichiometry N” value in data set [1] was 6. The binding result in data set [2] is “binds”.

B2: human propionyl-CoA carboxylase β subunit (natural protein, human (endogenous in Expi 293F), UniProt P05166 29-539, looked up)
chain: CSQATSVNERIENKRRTALLGGGQRRIDAQHKRGKLTARERISLLLDPGSFVESDMFVEHRCADFGMAADKNKFPGDSVVTGRGRINGRLVYVFSQDFTVFGGSLSGAHAQKICKIMDQAITVGAPVIGLNDSGGARIQEGVESLAGYADIFLRNVTASGVIPQISLIMGPCAGGAVYSPALTDFTFMVKDTSYLFITGPDVVKSVTNEDVTQEELGGAKTHTTMSGVAHRAFENDVDALCNLRDFFNYLPLSSQDPAPVRECHDPSDRLVPELDTIVPLESTKAYNMVDIIHSVVDEREFFEIMPNYAKNIIVGFARMNGRTVGIVGNQPKVASGCLDINSSVKGARFVRFCDAFNIPLITFVDVPGFLPGTAQEYGGIIRHGAKLLYAFAEATVPKVTVITRKAYGGAYDVMSSKHLCGDTNYAWPTAEIAVMGAKGAVEIIFKGHENVEAAQAEYIEKFANPFPAAVRGFVDDIIQPSSTRARICCDLDVLASKKVQRPWRKHANIPL
notes: Propionyl-CoA carboxylase β subunit (PCCβ), human, endogenous; CT domain (CT-N and CT-C subdomains); Co-purified with the biotinylated α subunit as the endogenous α6β6 PCC holoenzyme; also called PCCβ; β subunit of PCC; source: endogenous, Expi 293F cells, purified (Strep-Tactin XT resin, size-exclusion chromatography)
Take B2: the binding result in data set [3] is “binds”.

Usually stoichiometry N stands for the number of molecules, sites or subunits per partner or assembly.
